Laboratory results: paper PMC3708883

Tests used:
[1] = biological target: β1 integrin (human (endogenous in peripheral blood monocytes)) (UniProt P05556)
[2] = biological target: β3 integrin (human (endogenous in peripheral blood monocytes)) (UniProt P05106)
β3 integrin (human (endogenous in peripheral blood monocytes)), sequence (P05106 27-788): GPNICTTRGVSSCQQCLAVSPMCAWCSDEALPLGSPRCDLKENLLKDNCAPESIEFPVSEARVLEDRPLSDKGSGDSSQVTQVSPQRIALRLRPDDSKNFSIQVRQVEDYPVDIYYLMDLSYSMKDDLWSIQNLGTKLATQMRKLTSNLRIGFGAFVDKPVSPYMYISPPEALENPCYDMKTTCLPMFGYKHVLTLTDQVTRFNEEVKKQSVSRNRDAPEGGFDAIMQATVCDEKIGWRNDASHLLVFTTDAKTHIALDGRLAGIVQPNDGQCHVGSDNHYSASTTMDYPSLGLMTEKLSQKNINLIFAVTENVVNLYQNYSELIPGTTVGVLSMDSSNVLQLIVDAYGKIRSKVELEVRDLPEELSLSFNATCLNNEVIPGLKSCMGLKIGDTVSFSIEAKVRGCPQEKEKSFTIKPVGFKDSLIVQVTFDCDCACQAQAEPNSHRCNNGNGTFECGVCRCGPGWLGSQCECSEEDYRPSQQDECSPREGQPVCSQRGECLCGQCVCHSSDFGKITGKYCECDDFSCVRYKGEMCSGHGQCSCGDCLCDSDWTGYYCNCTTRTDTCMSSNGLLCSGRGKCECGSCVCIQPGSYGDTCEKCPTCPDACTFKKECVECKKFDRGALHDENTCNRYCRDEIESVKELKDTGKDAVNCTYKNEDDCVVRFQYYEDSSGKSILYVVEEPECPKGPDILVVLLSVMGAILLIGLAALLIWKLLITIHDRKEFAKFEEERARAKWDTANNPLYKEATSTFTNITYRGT

β1 integrin (human (endogenous in peripheral blood monocytes)), sequence (P05556 21-798): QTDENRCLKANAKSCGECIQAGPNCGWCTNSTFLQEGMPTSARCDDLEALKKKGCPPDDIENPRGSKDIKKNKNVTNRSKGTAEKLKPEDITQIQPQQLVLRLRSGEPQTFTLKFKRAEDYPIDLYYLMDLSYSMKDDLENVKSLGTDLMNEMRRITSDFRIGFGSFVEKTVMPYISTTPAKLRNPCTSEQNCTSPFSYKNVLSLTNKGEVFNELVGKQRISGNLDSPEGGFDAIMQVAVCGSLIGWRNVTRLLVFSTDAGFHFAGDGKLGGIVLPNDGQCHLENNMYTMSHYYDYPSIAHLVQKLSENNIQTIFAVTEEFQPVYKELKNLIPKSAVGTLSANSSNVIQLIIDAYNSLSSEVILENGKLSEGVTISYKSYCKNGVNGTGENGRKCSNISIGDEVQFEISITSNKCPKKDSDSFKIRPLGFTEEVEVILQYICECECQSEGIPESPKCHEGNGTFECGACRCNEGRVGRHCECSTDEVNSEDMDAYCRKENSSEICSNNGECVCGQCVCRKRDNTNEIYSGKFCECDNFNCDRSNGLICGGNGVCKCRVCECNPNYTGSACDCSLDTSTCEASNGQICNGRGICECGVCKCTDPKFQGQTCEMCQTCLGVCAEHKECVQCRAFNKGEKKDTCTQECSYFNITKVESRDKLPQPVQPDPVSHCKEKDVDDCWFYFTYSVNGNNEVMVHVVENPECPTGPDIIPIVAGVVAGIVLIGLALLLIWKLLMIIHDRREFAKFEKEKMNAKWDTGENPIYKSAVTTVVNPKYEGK

Question: Which inhibition of BADrUL131 entry into monocytes (internalized vDNA) after pretreatment with 5 µg/ml function blocking anti-β1 integrin antibody [1] does the source give for “HCMV gH/gL/UL128-131 complex of BADrUL131 (from UniProt P12824 24-743; P16832 31-278; P16837 1-171; P16772 1-214)” here?
Answer: 75%

Question: And the inhibition of BADrUL131 entry into monocytes (internalized vDNA) after pretreatment with 5 µg/ml function blocking anti-β3 integrin antibody [2]?
Answer: 40%
